# Measurements taken from publication PMC2873776 (Biochemistry, 2010).
# Target: the molecule itself
# Test: pulsed dipolar ESR spectroscopy
protein,measurement,value
"Tm14C N125C homodimer, spin-labeled (domain or fragment, MTSSL nitroxide spin label on Cys125) RRIEEVKERFVNLNRLFQELVGDFQAKSDQLVSVIQDMEKISENIMEELKKSGTNVDQIVERVKEASSQIGETLENIRSIEKLIQCIMRIARETNILALNATIEAARAGEAGKGFMIVANEVQNLSNETNEVTKQIVEKAREILESSQRSLENLEFMANLFETVGKTLQNMVRF",stoichiometry N,2
